Assay results as given in patent US6359194 (Takeda / Millennium, dated 2002).

B1: GAL4 DNA-binding domain-fchd540 fusion (other, UniProt P04386 1-147, looked up)
chain: MKLLSSIEQACDICRLKKLKCSKEKPKCAKCLKNNWECRYSPKTKRSPLTRAHLTEVESRLERLEQLFLLIFPREDLDMILKMDSLQDIKALLTGLFVQDNVNKDAVTDRLASVETDMPLTLRQHRISATSSSEESSNKGQRQLTVSMFRTKRSALVRRLWRSRAPGGEDEEEGAGGGGGGGELRGEGATDSRAHGAGGGGPGRAGCCLGKAVRGAKGHHHPHPPAAGAGAAGGAEADLKALTHSVLKKLKERQLELLLQAVESRGGTRTACLLLPGRLDCRLGPGAPAGAQPAQPPSSYSLPLLLCKVFRWPDLRHSSEVKRLCCCESYGKINPELVCCNPHHLSRLCELESPPPPYSRYPMDFLKPTADCPDAVPSSAETGGTNYLAPGGLSDSQLLLEPGDRSHWCVVAYWEEKTRVGRLYCVQEPSLDIFYDLPQGNGFCLGQLNSDNKSQLVQKVRSKIGCGIQLTREVDGVWVYNRSSYPIFIKSATLDNPDSRTLLVHKVFPGFSIKAFDYEKAYSLQRPNDHEFMQQPWTGFTVQISFVKGWGQCYTRQFISSCPCWLEVIFNSR
notes: Yeast two-hybrid bait; also called fchd540 bait protein; pGBT9-fchd540
B2: tchvR4A (GAL4 activation domain fusion to amino acids 25-235 of rchd534) (other, not shown: large carriers)
chain: DEYKPLDLSDSTLSYTETEATNSLITAPGEFSDASMSPDATKPSHWCSVAYWEHRTRVGRLYAVYDQAVSIFYDLPQGSGFCLGQLNLEQRSESVRRTRSKIGFGILLSKEPDGVWAYNRGEHPIFVNSPTLDAPGGRALVVRKVPPGYSIKVFDFERSGLQHAPEPDAADGPYDPNSVRISFAKGWGPCYSRQFITSCPCWLEILLNNPR
notes: Library clone from the human breast two-hybrid library; also called tchvR4A fish protein
B3: GAL4 DNA-binding domain fusion to Drosophila MAD (other, UniProt P04386 1-147, looked up)
chain: MKLLSSIEQACDICRLKKLKCSKEKPKCAKCLKNNWECRYSPKTKRSPLTRAHLTEVESRLERLEQLFLLIFPREDLDMILKMDSLQDIKALLTGLFVQDNVNKDAVTDRLASVETDMPLTLRQHRISATSSSEESSNKGQRQLTVSMDTDDVESNTSSAMSTLGSLFSFTSPAVKKLLGWKQGDEEEKWAEKAVDSLVKKLKKRKGAIEELERALSCPGQPSKCVTIPRSLDGRLQVSHRKGLPHVIYCRVWRWPDLQSHHELKPLELCQYPFSAKQKEVCINPYHYKRVESPVLPPVLVPRHSEFAPGHSMLQFNHVAEPSMPHNVSYSNSGFNSHSLSTSNTSVGSPSSVNSNPNSPYDSLAGTPPPAYSPSEDGNSNNPNDGGQLLDAQMGDVAQVSYSEPAFWASIAYYELNCRVGEVFHCNNNSVIVDGFTNPSNNSDRCCLGQLSNVNRNSTIENTRRHIGKGVHLYYVTGEVYAECLSDSAIFVQSRNCNYHHGFHPSTVCKIPPGCSLKIFNNQEFAQLLSQSVNNGFEAVYELTKMCTIRMSFVKGWGAEYHRQDVTSTPCWIEIHLHGPLQWLDKVLTQMGSPHNAISSVS
notes: Yeast two-hybrid bait; also called Dros; MAD; MAD bait protein
B4: GAL4 transcriptional activation domain-rchd534 fusion (other, human, UniProt O43541-2 1-235, looked up, not shown: large carriers)
chain: MSRMGKPIETQKSPPPPYSRLSPRDEYKPLDLSDSTLSYTETEATNSLITAPGEFSDASMSPDATKPSHWCSVAYWEHRTRVGRLYAVYDQAVSIFYDLPQGSGFCLGQLNLEQRSESVRRTRSKIGFGILLSKEPDGVWAYNRGEHPIFVNSPTLDAPGGRALVVRKVPPGYSIKVFDFERSGLQHAPEPDAADGPYDPNSVRISFAKGWGPCYSRQFITSCPCWLEILLNNPR
notes: Yeast two-hybrid fish; also called rchd534 fish protein; Smad6
B5: tchv03A (GAL4 activation domain fusion to amino acids 17-235 of rchd534) (other, not shown: large carriers)
chain: PYSRLSPRDEYKPLDLSDSTLSYTETEATNSLITAPGEFSDASMSPDATKPSHWCSVAYWEHRTRVGRLYAVYDQAVSIFYDLPQGSGFCLGQLNLEQRSESVRRTRSKIGFGILLSKEPDGVWAYNRGEHPIFVNSPTLDAPGGRALVVRKVPPGYSIKVFDFERSGLQHAPEPDAADGPYDPNSVRISFAKGWGPCYSRQFITSCPCWLEILLNNPR
notes: Library clone from the human breast two-hybrid library; also called tchv03A fish protein
B6: GAL4 activation domain fusion to SV40 (other)
chain: PTYGTDEWEQWWNAFNEENLFCSEEMPSSDDEATADSQHSTPPKKKRKVEDPKDFPSELLSFLSHAVFSNRTLACFAIYTTKEKAALLYKKIMEKYSVTFISRHNSYNHNILFFLTPHRHRVSAINNYAQKLCTFSFLICKGVNKEYLMYSALTRDPFSVIEESLPGGLKEHDFNPEEAEETKQVSWKLVTEYAMETKCDDVLLLLGMYLEFQYSFEMCLKCIKKEQPSHYKYHEKHYANAAIFADSKNQKTICQQAVDTVLAKKRVDSLQLTREQMLTNRFNDLLDRMDIMFGSTGSADIEEWMAGVAWLHCLLPKMDSVVYDFLKCMVYNIPKKRYWLFKGPIDSGKTTLAAALLELCGGKALNVNLPLDRLNFELGVAIDQFLVVFEDVKGTGGESRDLPSGQGINNLDNLRDYLDGSVKVNLEKKHLNKRTQIFPPGIVTMNEYSVPKTLQARFVKQIDFRPKDYLKHCLERSEFLLEKRIIQSGIALLLMLIWYRPVAEFAQSIQSRIVEWKERLDKEFSLSVYQKMKFNVAMGIGVLDWLRNSDDDDEDSQENADKNEDGGEKNMEDSGHETGIDSQSQGSFQAPQSSQSVHDHNQPYHICRGFTCFKKPPTPPPEPET
notes: Two-hybrid control
B7: GAL4 DNA-binding domain fusion to rchd534 (other, UniProt P04386 1-147, looked up)
chain: MKLLSSIEQACDICRLKKLKCSKEKPKCAKCLKNNWECRYSPKTKRSPLTRAHLTEVESRLERLEQLFLLIFPREDLDMILKMDSLQDIKALLTGLFVQDNVNKDAVTDRLASVETDMPLTLRQHRISATSSSEESSNKGQRQLTVSMSRMGKPIETQKSPPPPYSRLSPRDEYKPLDLSDSTLSYTETEATNSLITAPGEFSDASMSPDATKPSHWCSVAYWEHRTRVGRLYAVYDQAVSIFYDLPQGSGFCLGQLNLEQRSESVRRTRSKIGFGILLSKEPDGVWAYNRGEHPIFVNSPTLDAPGGRALVVRKVPPGYSIKVFDFERSGLQHAPEPDAADGPYDPNSVRISFAKGWGPCYSRQFITSCPCWLEILLNNPR
notes: Yeast two-hybrid bait; also called rchd534 bait protein

Experiments:
Test in all cases: yeast two-hybrid mating assay (HIS3 and lacZ reporters)
[1] = molecular target: B6
Source text: (§1) Yeast expression plasmids encoding the GAL4 DNA-binding domain either alone or fused in frame to fchd540, rchd534, Drosophilia MAD, DPC4, or p53 were transformed into MATa two-hybrid screening strain HF7c. Yeast expression plasmnids encoding the GAL4 transcriptional activation domain alone and GAL4 activation domain fusions to rchd534 and SV40 were transformed into MATα two-hybrid screening strain Y1 87. p53 and SV40 interact with each other and should not interact with the experimental proteins. The HF7c transformants were propagated as stripes on semisolid synthetic complete medium lacking L-tryptophan and the Y187 transformants were grown as stripes on semisolid synthetic complete medium lacking L-leucine. Both sets of stripes were replica plated in the form of a grid onto a single rich YPAD plate and the haploid strains of opposite mating types were allowed to mate overnight at 30° C. The yeast strains on the mating plate were then replica plated to a synthetic complete plate lacking L-leucine and L-tryptophan to select for diploids and incubated at 30° C. overnight. Diploid strains on the synthetic complete plate lacking L-leucine and L-tryptophan were replica plated to a synthetic complete plate lacking L-leucine, L-tryptophan, and L-histidine to assay HIS3 expression and a paper filter on a synthetic complete plate lacking L-leucine and L-tryptophan. The next day the paper filter was subjected to the paper filter beta-galactosidase assay to measure expression of the lacZ reporter gene. HIS3 expression was scored after 3 days of growth at 30° C.
(§2) It was confirmed that these rchd534 cDNAs encode proteins that physically interact specifically with fchd540. Yeast expression plasmids encoding the GAL4 DNA-binding domain either alone or fused in frame to fchd540, rchd534, Drosophila MAD, DPC4, and p53 were transformed into MATa two-hybrid screening strain HF7c. Yeast expression plasmids encoding the GAL4 transcriptional activation domain (GAL4 AD) alone and GAL4 activation domain fusions to tchv03a, tchvR4A and SV40 were transformed into MATα two-hybrid screening strain Y1 87. p53 and SV40 interact with each other and should not interact with the experimental proteins. The HF7c transformants were propagated as stripes on semi-solid synthetic complete medium lacking […].

[2] = molecular target: B7
Source text: as §1, §2

[3] = molecular target: B3
Source text: as §1, §2

[4] = molecular target: T1, GAL4 DNA-binding domain fusion to DPC4 (UniProt P04386 1-147; Q13485 1-552, limits assumed)
T1 construct: Yeast two-hybrid bait; also called DPC4 bait protein
Source text: as §1, §2

| Binder | binding result [1] | binding result [2] | binding result [3] | binding result [4] |
| --- | --- | --- | --- | --- |
| B1 | no binding |  |  |  |
| B2 |  | no binding | no binding | no binding |
| B3 | no binding |  |  |  |
| B4 |  |  | no binding | no binding |
| B5 |  | no binding | no binding | no binding |
| B6 |  |  |  | no binding |
| B7 | no binding |  |  |  |
